Laboratory results reported in PMC3685208.

What was measured:
Test in all cases: crystal structure
[1] = target: JCPyV Mad-1 VP1 pentamer L54F (amino acids 22 to 289) (JC polyomavirus (JCPyV), strain Mad-1)
[2] = target: JCPyV Mad-1 VP1 pentamer S268Y (amino acids 22 to 289) (JC polyomavirus (JCPyV), strain Mad-1)
[3] = target: JCPyV Mad-1 VP1 pentamer S268F (amino acids 22 to 289) (JC polyomavirus (JCPyV), strain Mad-1)
[4] = target: JCPyV Mad-1 VP1 pentamer (wild type, amino acids 22 to 289) (JC polyomavirus (JCPyV), strain Mad-1)

Q: “JCPyV Mad-1 VP1 pentamer L54F (amino acids 22 to 289) (domain or fragment)” was tested. Which stoichiometry N [1] did it give?
A: Its stoichiometry N is 5.

Q: With “JCPyV Mad-1 VP1 pentamer S268Y (amino acids 22 to 289) (domain or fragment)” as the substance, how does the stoichiometry N [2] read?
A: The stoichiometry N was 5.

Q: With “JCPyV Mad-1 VP1 pentamer S268F (amino acids 22 to 289) (domain or fragment)” as the substance, how does the stoichiometry N [3] read?
A: Its stoichiometry N is 5.

Q: For “JCPyV Mad-1 VP1 pentamer (wild type, amino acids 22 to 289) (domain or fragment)”, which stoichiometry N [4] is on record?
A: Its stoichiometry N is 5.
